Positions count from the first letter of the chain named. Bounds are passed on as bounds.

What all share (test): two-hybrid; LexA-Cdc1 bait (pBTM116 or pBTM116BN) with Gal4-Pol3 prey and co-expressed c-myc-tagged Cdc27 (pAA-Cdc27) in S. cerevisiae CTY10-5d; ONPG liquid culture beta-galactosidase assay, mean of triplicates, as percent of wild-type Cdc1
Holding throughout (conditions): partners not purified

One test has as its target T1, Cdc1-A4 (Schizosaccharomyces pombe, UniProt P87324 1-462, Pro303Ala).
T1 construct: Cdc1, S. pombe, point mutant; source: yeast two-hybrid fusion, in S. cerevisiae CTY10-5d
T1 sequence (looked up): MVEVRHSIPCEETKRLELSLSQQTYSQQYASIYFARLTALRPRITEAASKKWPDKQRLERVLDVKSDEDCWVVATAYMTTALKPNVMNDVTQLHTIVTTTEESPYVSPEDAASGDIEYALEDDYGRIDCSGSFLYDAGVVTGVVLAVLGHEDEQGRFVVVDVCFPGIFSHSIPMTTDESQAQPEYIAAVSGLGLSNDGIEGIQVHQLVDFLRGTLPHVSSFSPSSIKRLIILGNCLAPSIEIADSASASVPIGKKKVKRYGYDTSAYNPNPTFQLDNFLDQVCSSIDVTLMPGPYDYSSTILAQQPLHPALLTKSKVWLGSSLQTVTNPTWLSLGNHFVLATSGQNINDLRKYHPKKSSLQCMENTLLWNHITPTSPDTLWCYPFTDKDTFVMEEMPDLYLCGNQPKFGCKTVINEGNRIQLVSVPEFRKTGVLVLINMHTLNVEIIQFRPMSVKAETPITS

Another test addresses T2, Cdc1-A1 (Schizosaccharomyces pombe, UniProt P87324 1-462, Pro292Ala).
T2 construct: Cdc1, S. pombe, point mutant; source: yeast two-hybrid fusion, in S. cerevisiae CTY10-5d
T2 sequence (looked up): T1 sequence (looked up) with P292A, A303P

A further test addresses T3, Cdc1-J9 (Schizosaccharomyces pombe, UniProt P87324 1-462, Met-ArgGlyThrProMet-Thr).
T3 construct: Cdc1, S. pombe, with a pentapeptide inserted after residue 174; source: yeast two-hybrid fusion, in S. cerevisiae CTY10-5d
T3 sequence (looked up): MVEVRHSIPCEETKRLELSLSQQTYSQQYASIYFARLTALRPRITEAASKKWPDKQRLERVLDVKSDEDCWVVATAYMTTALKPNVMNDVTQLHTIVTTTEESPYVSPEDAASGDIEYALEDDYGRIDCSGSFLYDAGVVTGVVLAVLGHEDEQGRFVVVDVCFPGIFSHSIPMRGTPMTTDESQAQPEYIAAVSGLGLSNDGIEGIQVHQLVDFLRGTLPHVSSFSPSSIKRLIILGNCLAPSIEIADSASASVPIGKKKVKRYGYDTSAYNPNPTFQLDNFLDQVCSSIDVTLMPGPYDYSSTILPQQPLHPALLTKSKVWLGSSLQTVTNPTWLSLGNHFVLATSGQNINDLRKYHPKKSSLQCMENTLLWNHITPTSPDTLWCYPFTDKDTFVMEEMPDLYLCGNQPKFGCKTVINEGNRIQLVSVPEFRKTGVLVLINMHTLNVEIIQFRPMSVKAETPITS

Another test has as its target T4, Cdc1-J1 (Schizosaccharomyces pombe, UniProt P87324 1-462, Thr-GlyValProLeuThr-Gly).
T4 construct: Cdc1, S. pombe, with a pentapeptide inserted after residue 141; source: yeast two-hybrid fusion, in S. cerevisiae CTY10-5d
T4 sequence (looked up): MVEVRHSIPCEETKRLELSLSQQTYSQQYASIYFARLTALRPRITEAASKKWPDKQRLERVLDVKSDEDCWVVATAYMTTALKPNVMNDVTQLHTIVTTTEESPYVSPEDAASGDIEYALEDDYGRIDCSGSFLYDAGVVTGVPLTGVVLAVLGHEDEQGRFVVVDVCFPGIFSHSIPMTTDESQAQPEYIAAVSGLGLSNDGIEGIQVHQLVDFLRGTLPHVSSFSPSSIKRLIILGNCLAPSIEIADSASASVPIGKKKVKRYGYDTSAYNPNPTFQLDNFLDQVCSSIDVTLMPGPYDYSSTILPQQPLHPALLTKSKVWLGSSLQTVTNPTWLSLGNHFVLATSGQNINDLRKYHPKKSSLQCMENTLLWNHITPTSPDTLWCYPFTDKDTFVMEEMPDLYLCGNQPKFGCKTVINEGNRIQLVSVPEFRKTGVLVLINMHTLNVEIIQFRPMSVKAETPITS

B1: Pol3 (fission yeast DNA polymerase delta catalytic subunit) (natural protein, Schizosaccharomyces pombe, UniProt P30316 1-1086, looked up)
chain: MTDRSSNEGVVLNKENYPFPRRNGSIHGEITDVKRRRLSERNGYGDKKGSSSKEKTSSFEDELAEYASQLDQDEIKSSKDQQWQRPALPAINPEKDDIYFQQIDSEEFTEGSVPSIRLFGVTDNGNSILVHVVGFLPYFYVKAPVGFRPEMLERFTQDLDATCNGGVIDHCIIEMKENLYGFQGNEKSPFIKIFTTNPRILSRARNVFERGEFNFEELFPVGVGVTTFESNTQYLLRFMIDCDVVGMNWIHLPASKYQFRYQNRVSNCQIEAWINYKDLISLPAEGQWSKMAPLRIMSFDIECAGRKGVFPDPSIDPVIQIASIVTQYGDSTPFVRNVFCVDTCSQIVGTQVYEFQNQAEMLSSWSKFVRDVDPDVLIGYNICNFDIPYLLDRAKSLRIHNFPLLGRIHNFFSVAKETTFSSKAYGTRESKTTSIPGRLQLDMLQVMQRDFKLRSYSLNAVCSQFLGEQKEDVHYSIITDLQNGTADSRRRLAIYCLKDAYLPQRLMDKLMCFVNYTEMARVTGVPFNFLLARGQQIKVISQLFRKALQHDLVVPNIRVNGTDEQYEGATVIEPIKGYYDTPIATLDFSSLYPSIMQAHNLCYTTLLDSNTAELLKLKQDVDYSVTPNGDYFVKPHVRKGLLPIILADLLNARKKAKADLKKETDPFKKAVLDGRQLALKVSANSVYGFTGATNGRLPCLAISSSVTSYGRQMIEKTKDVVEKRYRIENGYSHDAVVIYGDTDSVMVKFGVKTLPEAMKLGEEAANYVSDQFPNPIKLEFEKVYFPYLLISKKRYAGLFWTRTDTYDKMDSKGIETVRRDNCPLVSYVIDTALRKMLIDQDVEGAQLFTKKVISDLLQNKIDMSQLVITKALSKTDYAAKMAHVELAERMRKRDAGSAPAIGDRVAYVIIKGAQGDQFYMRSEDPIYVLENNIPIDAKYYLENQLSKPLLRIFEPILGEKASSLLHGDHTRTISMAAPSVGGIMKFAVKVETCLGCKAPIKKGKTALCENCLNRSAELYQRQVAQVNDLEVRFARLWTQCQRCQGSMHQDVICTSRDCPIFYMRIAEHKKLQQSVDLLKRFDEMSW
notes: DNA polymerase delta catalytic subunit Pol3, S. pombe; prey plasmid named pACT-Pol3 in the results and pGAD2F-Pol3 in the methods; also called Gal4-Pol3; pACT-Pol3; source: yeast two-hybrid fusion, in S. cerevisiae CTY10-5d
For B1, the “two-hybrid beta-galactosidase activity, % of wild-type Cdc1” value is less than 1% in the test with Cdc1-A4, 39% with Cdc1-A1, 91% with Cdc1-J9 and less than 1% in the test with Cdc1-J1.

The values above are taken from paper PMC2734569, “Functional mapping of the fission yeast DNA polymerase δ B-subunit Cdc1 by site-directed and random pentapeptide insertion mutagenesis” (BMC Molecular Biology, 2009).
